Earlier results as cited in publication PMC6128780.

Target: Fibronectin (Homo sapiens) (UniProt P02751)
UniProt P02751, sequence (P02751 32-2477): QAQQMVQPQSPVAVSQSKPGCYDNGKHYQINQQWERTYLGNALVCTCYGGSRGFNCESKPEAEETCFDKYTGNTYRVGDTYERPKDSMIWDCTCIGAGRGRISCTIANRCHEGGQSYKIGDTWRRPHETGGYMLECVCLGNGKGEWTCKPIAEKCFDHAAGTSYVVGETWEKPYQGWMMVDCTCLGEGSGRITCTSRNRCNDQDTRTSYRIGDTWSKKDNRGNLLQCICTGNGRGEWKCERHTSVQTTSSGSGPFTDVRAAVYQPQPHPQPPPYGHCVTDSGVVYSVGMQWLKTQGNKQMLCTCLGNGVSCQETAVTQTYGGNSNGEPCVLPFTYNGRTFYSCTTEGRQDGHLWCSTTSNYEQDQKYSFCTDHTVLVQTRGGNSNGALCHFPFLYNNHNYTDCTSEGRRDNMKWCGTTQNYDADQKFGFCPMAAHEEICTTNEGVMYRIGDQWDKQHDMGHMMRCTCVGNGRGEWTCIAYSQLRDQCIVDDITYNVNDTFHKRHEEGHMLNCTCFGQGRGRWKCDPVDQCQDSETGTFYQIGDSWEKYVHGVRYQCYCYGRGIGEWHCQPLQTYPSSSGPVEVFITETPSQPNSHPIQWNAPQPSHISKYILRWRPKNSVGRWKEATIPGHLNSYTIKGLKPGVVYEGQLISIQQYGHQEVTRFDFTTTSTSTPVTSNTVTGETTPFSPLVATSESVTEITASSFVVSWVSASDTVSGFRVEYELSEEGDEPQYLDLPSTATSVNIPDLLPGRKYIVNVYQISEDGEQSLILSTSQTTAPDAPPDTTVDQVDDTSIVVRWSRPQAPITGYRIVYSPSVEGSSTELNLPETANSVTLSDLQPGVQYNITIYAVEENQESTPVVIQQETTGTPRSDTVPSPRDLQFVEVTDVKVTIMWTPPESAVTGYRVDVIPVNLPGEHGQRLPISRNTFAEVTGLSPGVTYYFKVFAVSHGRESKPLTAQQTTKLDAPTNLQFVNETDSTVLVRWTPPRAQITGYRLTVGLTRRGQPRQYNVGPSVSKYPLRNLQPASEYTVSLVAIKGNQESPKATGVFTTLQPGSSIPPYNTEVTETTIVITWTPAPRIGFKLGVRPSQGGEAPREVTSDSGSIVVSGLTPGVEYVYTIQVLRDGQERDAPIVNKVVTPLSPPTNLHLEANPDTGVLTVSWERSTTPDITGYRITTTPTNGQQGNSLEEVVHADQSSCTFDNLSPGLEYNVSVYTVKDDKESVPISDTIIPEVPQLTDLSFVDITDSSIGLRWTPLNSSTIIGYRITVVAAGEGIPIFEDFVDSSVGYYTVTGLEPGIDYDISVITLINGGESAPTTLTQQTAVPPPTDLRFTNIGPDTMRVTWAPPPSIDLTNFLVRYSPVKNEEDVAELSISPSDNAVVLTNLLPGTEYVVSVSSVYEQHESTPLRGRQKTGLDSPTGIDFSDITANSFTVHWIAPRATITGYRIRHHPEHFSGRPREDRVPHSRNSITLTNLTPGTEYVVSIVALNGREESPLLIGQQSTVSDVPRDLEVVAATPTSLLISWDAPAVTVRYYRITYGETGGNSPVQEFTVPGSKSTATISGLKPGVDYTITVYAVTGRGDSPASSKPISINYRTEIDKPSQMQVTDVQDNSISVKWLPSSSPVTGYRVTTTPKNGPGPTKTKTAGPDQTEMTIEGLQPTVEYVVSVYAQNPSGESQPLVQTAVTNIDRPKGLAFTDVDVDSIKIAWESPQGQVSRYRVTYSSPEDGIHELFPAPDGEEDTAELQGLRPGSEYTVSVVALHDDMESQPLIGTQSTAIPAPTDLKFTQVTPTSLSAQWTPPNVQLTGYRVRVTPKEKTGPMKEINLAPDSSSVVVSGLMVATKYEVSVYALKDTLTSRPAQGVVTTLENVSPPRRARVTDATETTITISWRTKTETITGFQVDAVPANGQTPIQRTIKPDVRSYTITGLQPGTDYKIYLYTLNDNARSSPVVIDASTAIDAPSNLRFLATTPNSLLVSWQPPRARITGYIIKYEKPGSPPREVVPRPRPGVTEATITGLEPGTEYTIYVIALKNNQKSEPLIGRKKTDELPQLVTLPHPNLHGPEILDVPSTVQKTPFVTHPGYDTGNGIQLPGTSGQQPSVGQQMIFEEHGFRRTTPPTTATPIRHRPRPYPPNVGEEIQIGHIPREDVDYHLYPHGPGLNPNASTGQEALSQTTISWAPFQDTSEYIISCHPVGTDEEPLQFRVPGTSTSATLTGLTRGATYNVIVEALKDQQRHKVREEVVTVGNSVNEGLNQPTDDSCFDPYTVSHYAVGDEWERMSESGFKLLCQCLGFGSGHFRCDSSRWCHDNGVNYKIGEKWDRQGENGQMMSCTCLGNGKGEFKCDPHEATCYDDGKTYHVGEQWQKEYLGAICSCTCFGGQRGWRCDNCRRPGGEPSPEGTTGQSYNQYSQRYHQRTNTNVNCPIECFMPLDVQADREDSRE

Kd: 16 nM
Substance: Carcinoembryonic antigen (CEA) IgV-like N domain (from UniProt P06731)
